Data reported in PMC5566480.
Numbering of substitutions follows the chain as printed. Names may count otherwise.

B1: Recombinant LipL32 wild type, mature form (rLipL32; 21-272) V35S (protein)
chain: GAFGGLPSLKSSFSLSESTVPGTNETVKTFLPYGSVINYYGYVKPGQAPDGLVDGNKKAYYLYVWIPAVIAEMGVRMISPTGEIGEPGDGDLVSDAFKAATPEEKSMPHWFDTWIRVERMSAIMPDQIAKAAKAKPVQKLDDDDDGDDTYKEERHNKYNSLTRIKIPNPPKSFDDLKNIDTKKLLVRGLYRISFTTYKPGEVKGSFVASVGLLFPPGIPGVSPLIHSNPEELQKQAIAAEESLKKAASDATK
B2: Recombinant LipL32 wild type, mature form (rLipL32; 21-272) F34S (protein)
chain: B1 chain with F13S, S14V
B3: Recombinant LipL32 wild type, mature form (rLipL32; 21-272) L36S (protein)
chain: B1 chain with S14V, L15S

Molecular target: Recombinant human Toll-like receptor 2 (rTLR2), O60603
Sequence (O60603 21-784): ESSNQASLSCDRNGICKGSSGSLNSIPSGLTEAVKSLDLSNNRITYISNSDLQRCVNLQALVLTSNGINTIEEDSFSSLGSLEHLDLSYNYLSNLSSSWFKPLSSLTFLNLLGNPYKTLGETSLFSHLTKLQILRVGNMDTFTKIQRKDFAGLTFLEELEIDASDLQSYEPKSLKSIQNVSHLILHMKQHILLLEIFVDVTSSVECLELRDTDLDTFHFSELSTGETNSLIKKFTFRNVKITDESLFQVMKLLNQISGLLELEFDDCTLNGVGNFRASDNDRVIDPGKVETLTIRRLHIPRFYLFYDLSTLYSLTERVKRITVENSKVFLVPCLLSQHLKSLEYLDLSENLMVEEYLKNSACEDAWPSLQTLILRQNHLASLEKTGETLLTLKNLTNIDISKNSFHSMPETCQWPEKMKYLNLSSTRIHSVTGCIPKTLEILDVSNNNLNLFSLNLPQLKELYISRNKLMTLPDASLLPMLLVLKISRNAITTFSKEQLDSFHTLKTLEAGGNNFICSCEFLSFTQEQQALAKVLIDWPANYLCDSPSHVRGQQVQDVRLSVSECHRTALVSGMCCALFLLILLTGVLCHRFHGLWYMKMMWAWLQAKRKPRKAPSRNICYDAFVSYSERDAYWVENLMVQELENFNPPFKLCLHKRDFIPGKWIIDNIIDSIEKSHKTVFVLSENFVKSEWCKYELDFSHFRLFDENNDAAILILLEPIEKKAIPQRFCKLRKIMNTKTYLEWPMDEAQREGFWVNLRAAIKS
Experiment: ELISA
Conditions: chain shown with the change;; parent: est. 0.37; read off a plot

| Binder | response [OD450nm] |
| --- | --- |
| B1 | 0.25 |
| B2 | 0.31 |
| B3 | 0.23 |
